# From patent US10508147B2, “Anti-nodal antibodies and methods of using same” (ANN AND ROBERT H. LURIE CHILDREN'S HOSPITAL OF CHICAGO, priority 2014, dated 2019)
# Entries after “also recorded” stand apart in the source; their conditions may differ.
# T1: endogenous Nodal protein (Homo sapiens, UniProt Q96S42)
# T1 construct: recognize the endogenous forms of Nodal protein in human melanoma cells; endogenous in cells; host or cells: human melanoma lines PES, A-375, SK-MEL, WM 266, LCM (blot)
# T1 sequence (Q96S42 238-347): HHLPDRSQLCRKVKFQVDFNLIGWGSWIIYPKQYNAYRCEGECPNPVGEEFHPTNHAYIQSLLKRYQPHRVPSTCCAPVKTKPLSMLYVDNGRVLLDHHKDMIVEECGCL
# Experiments:
# [1] = target: T1, endogenous Nodal protein; assay: Western blot detection of endogenous Nodal in human melanoma cell lysates with 3D1; assay type: binding; conditions: 3D1 at 2 μg/mL; panel of human melanoma cell lines and HEK-293
# Description: Western blot analyses for the detection of endogenous Nodal protein were performed using the following human skin malignant melanoma cell lines: PES, A-375, SK-MEL, WM 266 and LCM. HEK-293 (human embryonic kidney) cells and 100 ng of rhNodal protein were used as positive controls. Cells were lysed performing three freeze/thaw cycles in 50 mM Tris-HCl pH 7.5, 500 mM NaCl, 1% NP-40, 10 mM EDTA, 1 mM MgCl2, 1 mM CaCl2, 10% Glycerol, with an added cocktail of protease inhibitors and PMSF (phenyl-methanesulfonylfluoride). Cell lysates were cleared by centrifugation at 12,000 rpm for 20 min at 4° C. and the supernatants were quantified by Bradford assay. 50 μg of cell lysate from each sample were applied to a 15% SDS-PAGE gel under reducing conditions and electrophoresed for 3 h at 80 V. Separated proteins were transferred onto a polyvinylidene difluoride (PVDF) membrane (Millipore), previously soaked in methanol 100% for 5 min. […] The target protein was detected using the enhanced chemi-luminescent substrate method with the SuperSignal West Pico kit provided by Pierce Chemical Co. following the manufacturer's instructions. Signals were acquired with the ChemiDoc XRS video densitometer using the Quantity One software.
# [2] = test system: C8161 melanoma cells; assay: Western blot analysis of C8161 melanoma cells treated with anti-Nodal antibody; assay type: cell-based, human; conditions: for phosphorylation of Smad2 and MAPK (ERK1/2): 1 hr to 72 hr
# Description: Experiments were conducted in order to assess and characterize the ability of the 3D1 antibody to inhibit Nodal activity. 3D1 reduced Nodal expression, clonogenicity, and vasculogenic mimicry in metastatic melanoma cells (See FIG. 24). C8161 melanoma cells treated with an IgG-Control (negative control) or 4 μg/ml of either Santa Cruz (SC) (used as positive control) or 3D1 function blocking anti-Nodal antibodies for 72 hours.
# Additional studies were performed in order to determine if 3D1 antibody could alter phosphorylation of Smad2 or MAPK. […] Western blot analysis of C8161 melanoma cells treated with 3D1 (4 μg/ml) vs. untreated control for 1 hr, 2 hr, 4 hr, 6 hr or 72 hr (See FIG. 25).
# To determine the level of Nodal expression in brain, kidney, liver, pancreas, heart and skeletal muscle ready to use adult tissue extracts for Western blotting (WB) were purchased from Santa Cruz Biotechnology. For WB experiments of cell lines, whole cell lysates were prepared and quantified. SDS-PAGE gel electrophoresis and WB were performed using standard techniques. PVDF membranes were blocked in 5% non-fat milk or 5% BSA and antibodies diluted in either 5% non-fat milk or 5% bovine serum albumin overnight at 4° C., depending on the manufacturer's recommendations. Signal was detected using West Pico chemiluminescence reagent (Thermo Fisher) and exposure to x-ray film.
# [3] = test system: C8161 cells; assay: C8161 orthotopic (subcutaneous) xenograft in Nude mice, intratumoral treatment; assay type: in vivo
# Description: Experiments were carried out to determine the in vivo effects of 3D1 mAb on primary melanoma. To this end, 500,000 C8161 cells were injected subcutaneously in Nude mice. Palpable tumors were then injected directly with either 700 μg of total 3D1 mAb or IgG control antibody (alternate day intratumoral injection of 100 μg over 14 days). Mice were then sacrificed and subcutaneous tumors harvested and processed as previously described. To evaluate the effect of 3D1 mAb in the presence of the BRAF(V600E) mutation, a third orthotopic xenograft model was established in Nude mice via subcutaneous injection of approximately 150,000 A375SM human metastatic melanoma cells. Mice were treated IP with 3D1 mAb or IgG control, as described above, or 3 mg/kg of dabrafenib.
# Four micron thick, formalin fixed, paraffin embedded tissue sections were prepared and immunohistochemistry was carried out on a Dako Plus autostainer (DAKO, Inc, Carpenteria, Calif.). […] Similar to the lung tumor burden evaluation described above, mean percentage of positive staining±SEM was determined by 2 different observers, each calculating the ratio of positive cells/total number of cells×100 for 4 separate high power fields (63× objective) from at least 2 different mice per group.
molecule,measurement,setting,value
"3D1: mouse monoclonal anti-Nodal antibody raised against hNodal(44-67); light chain SEQ ID NO:1, heavy chains SEQ ID NO:2 and 3 (protein, not fully specified; (120)..(120) Xaa can be any naturally occurring amino acid) light: DIKMTQSPASLSASVGETVTITCRASGNIHNYLAWYQQKQGKSPQLLVYNAKTLADGVPSRFSGSGSGTQYSLKINSLQPEDFGSYYCQHFWSTPHVRCWDQAGTETEAW heavy 1: VKLVESGGGLVKPGGSLKLSCAASGFTFSSYAMSWVRQTPEKRLEWVASISSGGCTYYPDSVKGRFTISRDNARNILYLQMSSLRSEDTAMYYCARGSMITADGNSLLLCYGLLGSRNLXHR heavy 2: VKLVESGGGLVQPGGSMKLSCVASGFTFRNYWMSWVRQSPEKGLEWVAEIRLKSDNYAARYAESVKGKFTISRDDSKSRLYLQMNSLRAEDTGIYYCTGIRRFAYWGQGTL",staining of endogenous Nodal forms in Western blot,[1],able to stain the immature form pro-Nodal
same,inhibition of Nodal protein expression,"[2]; 4 μg/ml, 72 hours, Western blot vs IgG control",50%
same,phosphorylation of Smad2 and MAPK (ERK1/2),[2]; 4 μg/ml,reduced phosphorylation of Smad2 and MAPK
same,phosphorylation of Smad2 and MAPK (ERK1/2),"[2]; 4 μg/ml, listed as 3D1 mAb",reduction in phosphorylation; also recorded: reduced
same,p27 level,[2]; 72 hr,increases
same,phospho-Histone H3 (P-H3) level,[2]; 72 hr,increases
same,Nodal expression,"[2]; 72 hr, 4 μg/ml, vs IgG control, listed as 3D1 mAb",reduction in Nodal expression
same,Cyclin B1 level,"[2]; 72 hr, listed as 3D1 mAb",reduced; also recorded: reduction
same,p27 level,"[2]; 72 hr, listed as 3D1 mAb",increase
same,phospho-Histone H3 (P-H3) level,"[2]; 72 hr, listed as 3D1 mAb",reduction
same,mean percentage (±SEM) of cells with strong positive nuclear P-Smad2 staining,"[3]; IHC of tumor sections, N=4",51.3%±3.3%
same,tumor volumes,"[3]; direct intratumoral injection, days 8 to 14, vs IgG control, listed as 3D1 mAb",significantly smaller; also recorded: Reduced tumor volumes
